Measured values taken from patent US20020045590A1 (Johns Hopkins, published 2002).
Blank lines part the entries; values can stand above or below the binder they belong to.

Legend:
[1] = target: T1, neuronal nitric oxide synthase (nNOS) (rat, UniProt P29476 1-1429, limits assumed); assay: GST fusion protein binding assay with rat hippocampus membrane proteins, immunoblot
T1 construct: Endogenous rat protein
Experimental: We utilized the yeast two-hybrid system to investigate the effects of halothane on protein interactions within the NMDA receptor signaling complex. The PDZ domain of nNOS or the C-terminus of NMDA receptor subunit 2B (NR2B) was fused in frame with the GAL4 DNA-binding domain in a yeast vector, pGBT9. […] Both yeast vectors were co-transformed into the Y190 yeast strain, which was then grown in the absence or presence of halothane at clinically relevant concentrations. Protein-protein interactions were confirmed by both yeast growth on -Leu/-Trp/-His (-LTH) medium and lacz expression. To confirm the yeast two-hybrid results, the GST fusion protein binding assay was performed. […] After extensive washing, the bound proteins were eluted by boiling in 1 X SDS-PAGE sample buffer and detected by immunoblotting.

[2] = target: T2, postsynaptic density-95 (PSD-95)/synapse-associated protein-90 (SAP90) (rat, UniProt P31016 1-724); assay: co-immunoprecipitation from rat spinal cord PSD fraction, immunoblot
T2 construct: Endogenous protein from rat spinal cord PSD fraction, pulled down by co-immunoprecipitation; also called PSD-95/SAP90
T2 sequence (P31016 whole entry): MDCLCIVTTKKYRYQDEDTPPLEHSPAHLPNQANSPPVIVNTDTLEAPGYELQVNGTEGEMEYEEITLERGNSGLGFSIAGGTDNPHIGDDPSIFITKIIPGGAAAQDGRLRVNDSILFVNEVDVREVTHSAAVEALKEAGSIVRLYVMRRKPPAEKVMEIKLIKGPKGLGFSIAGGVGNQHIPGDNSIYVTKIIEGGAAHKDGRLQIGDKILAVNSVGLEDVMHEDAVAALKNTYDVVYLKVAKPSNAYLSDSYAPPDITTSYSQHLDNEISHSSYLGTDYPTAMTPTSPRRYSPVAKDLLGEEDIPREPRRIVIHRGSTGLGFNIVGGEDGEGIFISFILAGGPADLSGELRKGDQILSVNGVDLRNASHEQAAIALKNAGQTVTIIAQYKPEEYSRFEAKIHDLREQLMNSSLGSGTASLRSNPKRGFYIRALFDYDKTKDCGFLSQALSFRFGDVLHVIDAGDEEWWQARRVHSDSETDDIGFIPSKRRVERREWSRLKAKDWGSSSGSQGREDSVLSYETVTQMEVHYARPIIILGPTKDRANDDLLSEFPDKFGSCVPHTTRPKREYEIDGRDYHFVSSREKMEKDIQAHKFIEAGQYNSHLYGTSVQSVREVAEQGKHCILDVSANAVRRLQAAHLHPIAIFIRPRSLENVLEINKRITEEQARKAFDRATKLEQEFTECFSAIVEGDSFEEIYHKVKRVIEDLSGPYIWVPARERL

T1 sequence (P29476 whole entry, the tested form may be a part): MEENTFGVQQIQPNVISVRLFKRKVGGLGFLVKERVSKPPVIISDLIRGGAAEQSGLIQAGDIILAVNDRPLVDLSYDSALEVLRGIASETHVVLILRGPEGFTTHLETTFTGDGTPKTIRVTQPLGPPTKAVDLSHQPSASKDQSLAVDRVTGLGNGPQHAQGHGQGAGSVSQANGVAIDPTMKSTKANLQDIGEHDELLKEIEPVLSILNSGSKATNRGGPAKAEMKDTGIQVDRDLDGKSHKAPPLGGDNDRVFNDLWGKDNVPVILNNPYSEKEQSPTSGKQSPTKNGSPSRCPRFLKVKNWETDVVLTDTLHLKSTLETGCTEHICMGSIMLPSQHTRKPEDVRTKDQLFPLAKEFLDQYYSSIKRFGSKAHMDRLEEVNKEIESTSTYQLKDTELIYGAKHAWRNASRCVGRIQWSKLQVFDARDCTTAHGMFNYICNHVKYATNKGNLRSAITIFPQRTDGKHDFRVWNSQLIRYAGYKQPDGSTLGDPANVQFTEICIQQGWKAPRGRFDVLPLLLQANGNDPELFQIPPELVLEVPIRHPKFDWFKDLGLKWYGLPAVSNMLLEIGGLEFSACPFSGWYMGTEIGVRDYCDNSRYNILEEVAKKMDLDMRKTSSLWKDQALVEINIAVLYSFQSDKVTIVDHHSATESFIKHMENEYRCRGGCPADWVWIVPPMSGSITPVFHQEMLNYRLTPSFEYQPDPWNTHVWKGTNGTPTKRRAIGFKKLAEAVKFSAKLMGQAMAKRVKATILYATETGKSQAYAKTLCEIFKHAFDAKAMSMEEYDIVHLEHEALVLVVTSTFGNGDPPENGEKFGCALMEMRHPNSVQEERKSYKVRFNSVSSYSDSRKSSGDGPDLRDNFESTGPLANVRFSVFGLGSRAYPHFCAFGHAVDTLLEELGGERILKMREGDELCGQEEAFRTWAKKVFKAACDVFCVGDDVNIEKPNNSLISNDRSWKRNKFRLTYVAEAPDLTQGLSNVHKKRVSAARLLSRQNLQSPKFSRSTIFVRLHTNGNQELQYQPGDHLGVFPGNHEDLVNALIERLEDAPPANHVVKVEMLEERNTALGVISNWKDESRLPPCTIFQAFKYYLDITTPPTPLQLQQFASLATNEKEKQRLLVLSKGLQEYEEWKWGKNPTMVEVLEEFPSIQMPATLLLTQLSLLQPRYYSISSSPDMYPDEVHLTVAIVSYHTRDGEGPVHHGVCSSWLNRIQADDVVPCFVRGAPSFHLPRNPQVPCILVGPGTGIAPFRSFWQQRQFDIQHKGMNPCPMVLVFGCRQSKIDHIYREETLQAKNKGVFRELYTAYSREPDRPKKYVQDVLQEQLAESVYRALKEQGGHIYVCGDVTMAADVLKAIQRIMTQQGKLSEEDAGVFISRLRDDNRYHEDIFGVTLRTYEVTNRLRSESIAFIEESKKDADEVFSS

B1: GST-fusion protein consisting of the second PDZ domain of PSD-95 (other, UniProt P31016 160-246, looked up)
chain: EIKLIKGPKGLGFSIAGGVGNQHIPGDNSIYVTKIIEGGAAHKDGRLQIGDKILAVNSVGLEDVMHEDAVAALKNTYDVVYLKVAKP
notes: domain: second PDZ domain; Expressed in bacterial BL21 cells, purified on glutathione-coupled agarose; also called GST-PSD-95; GST-fusion PSD-95; not shown: glutathione S-transferase (GST) tag
binding result [1]: binds

binding result [2]: no binding
B2: endothelial NOS (eNOS) (enzyme, rat, UniProt Q62600 2-1202, looked up)
chain: GNLKSVGQEPGPPCGLGLGLGLGLCGKQGPASPAPEPSQAPVPPSPTRPAPDHSPPLTRPPDGPKFPRVKNWEVGSITYDTLSAQAQQDGPCTPRRCLGSLVFPRKLQSRPTQGPSPTEQLLGQARDFINQYYNSIKRSGSQAHEQRLQEVEAEVVATGTYQLRESELVFGAKQAWRNAPRCVGRIQWGKLQVFDARDCRTAQEMFTYICNHIKYATNRGNLRSAITVFPQRYAGRGDFRIWNSQLVRYAGYRQQDGSVRGDPANVEITELCIQHGWTPGNGRFDVLPLLLQAPDEPPELFTLPPELVLEVPLEHPTLEWFAALGLRWYALPAVSNMLLEIGGLEFPAAPFSGWYMSSEIGMRDLCDPHRYNILEDVAVCMDLDTRTTSSLWKDKAAVEINVAVLYSYQLAKVTIVDHHAATASFMKHLENEQKARGGCPADWAWIVPPISGSLTPVFHQEMVNYFLSPAFRYQPDPWKGSAAKGTGITRKKTFKEVANAVKISASLMGTVMAKRVKATILYGSETGRAQSYAQQLGRLFRKAFDPRVLCMDEYDVVSLEHEALVLVVTSTFGNGDPPENGESFAAALMEMSGPYNSSPRPEQHKSYKIRFNSVSCSDPLVSSWRRKRKESSNTDSAGALGTLRFCVFGLGSRAYPHFCAFARAVDTRLEELGGERLLQLGQGDELCGQEEAFRGWAQAAFQAACETFCVGEDAKAAARDIFSPKRSWKRQRYRLSTQAESLQLLPRLTHVHRRKMFQATILSVENLQSSKSTRATILVRLDTGSQEGLQYQPGDHIGVCPPNRPGLVEALLSRVEDPPPSTEPVAVEQLEKGSPGGPPPGWVRDPRLPPCTLRQALTYFLDITSPPSPRLLRLLSTLAEESSEQQELEALSQDPRRYEEWKWFRCPTLLEVLEQFPSVALPAPLILTQLPLLQPRYYSVSSAPSAHPGEIHLTVAVLAYRTQDGLGPLHYGVCSTWMSQLKAGDPVPCFIRGAPSFRLPPDPNLPCILVGPGTGIAPFRGFWQDRLHDIEIKGLQPAPMTLVFGCRCSQLDHLYRDEVLDAQQRGVFGQVLTAFSRDPGSPKTYVQDLLRTELAAEVHRVLCLEQGHMFVCGDVTMATSVLQTVQRILATEGSMELDEAGDVIGVLRDQQRYHEDIFGLTLRTQEVTSRIRTQSFSLQERQLRGAVPWSFDPPTQETPGS
notes: Endogenous rat protein

binding result [1]: binds
B3: GST-fusion protein consisting of the second PDZ domain of PSD-93 (other, UniProt Q63622 193-279, looked up)
chain: EIKLFKGPKGLGFSIAGGVGNQHIPGDNSIYVTKIIDGGAAQKDGRLQVGDRLLMVNNYSLEEVTHEEAVAILKNTSDVVYLKVGKP
notes: domain: second PDZ domain; Expressed in bacterial BL21 cells, purified on glutathione-coupled agarose; also called GST-PSD-93; GST-fusion PSD-93; not shown: glutathione S-transferase (GST) tag
